Measured values from PMC7991746, “Nucleophosmin Protein Dephosphorylation by DUSP3 Is a Fine-Tuning Regulator of p53 Signaling to Maintain Genomic Stability” (Frontiers in Cell and Developmental Biology, 2021).
Substitutions are numbered along the chain they refer to. Numbers in names are those of the source. Non-standard residues stand in square brackets, D forms with d. No end group written: not given here. pY = N[C@@H](Cc1ccc(OP(=O)(O)O)cc1)C(=O)O

B1: DUSP3-WT (dual-specificity phosphatase 3) (enzyme, UniProt P51452 1-185, looked up)
chain: MSGSFELSVQDLNDLLSDGSGCYSLPSQPCNEVTPRIYVGNASVAQDIPKLQKLGITHVLNAAEGRSFMHVNTNANFYKDSGITYLGIKANDTQEFNLSAYFERAADFIDQALAQKNGRVLVHCREGYSRSPTLVIAYLMMRQKMDVKSALSIVRQNREIGPNDGFLAQLCQLNDRLAKEGKLKP
notes: DUSP3 (VHR), wild type, cDNA in pGEX-4T2 (Torres et al., 2017); Immobilised on a CM5 sensorchip; also called VHR; vaccinia virus H1-related phosphatase; source: E. coli BL-21 (DE3), purified (Glutathione-Sepharose 4B; GST removed by thrombin)
B2: DUSP3-C124S mutant (phosphatase dead) (enzyme, UniProt P51452 1-185, looked up)
chain: B1 chain with C124S
notes: DUSP3 (VHR) with the catalytic cysteine 124 substituted by serine, cDNA in pGEX-4T2 (Torres et al., 2017); Immobilised on a CM5 sensorchip; source: E. coli BL-21 (DE3), purified (Glutathione-Sepharose 4B; GST removed by thrombin)
B3: phospho-Y-decapeptide p-NPM(Y271) (peptide)
peptide: EAKFIN[pY]VKN
notes: Stretch of nucleophosmin around Y271; source: synthetic peptide, bought: Chinese Peptide Company
B4: phospho-Y-decapeptide p-NPM(Y67) (peptide)
peptide: AMN[pY]EGSPIK
notes: Stretch of nucleophosmin around Y67; source: synthetic peptide, bought: Chinese Peptide Company
B5: phospho-Y-decapeptide p-NPM(Y29) (peptide)
peptide: ADKD[pY]HFKVD
notes: Stretch of nucleophosmin around Y29; source: synthetic peptide, bought: Chinese Peptide Company
B6: phospho-Y-decapeptide p-NPM(Y17) (peptide)
peptide: SPLRPQN[pY]L
notes: Stretch of nucleophosmin around Y17; source: synthetic peptide, bought: Chinese Peptide Company

Molecular target: T1, ERK1 (UniProt P27361 1-379)
T1 construct: ERK1, cDNA in pGEX-4T2 donated by Prof; Rony Seger; The sentence on purification and on removal of GST names DUSP3 and NPM full length but not ERK1; source: E. coli BL-21 (DE3), purified recombinant protein
Assay: SPR; Biacore T100; DUSP3-WT or DUSP3-C124S immobilised on CM5 sensorchip (200 RU); protein analytes 12.5-1,000 nM; kinetic assays at 25°C, HBS-EP buffer, 10 μl/min, 120 s association, 300 s dissociation; three independent experiments
Conditions: both partners purified

T1 sequence (P27361 whole entry): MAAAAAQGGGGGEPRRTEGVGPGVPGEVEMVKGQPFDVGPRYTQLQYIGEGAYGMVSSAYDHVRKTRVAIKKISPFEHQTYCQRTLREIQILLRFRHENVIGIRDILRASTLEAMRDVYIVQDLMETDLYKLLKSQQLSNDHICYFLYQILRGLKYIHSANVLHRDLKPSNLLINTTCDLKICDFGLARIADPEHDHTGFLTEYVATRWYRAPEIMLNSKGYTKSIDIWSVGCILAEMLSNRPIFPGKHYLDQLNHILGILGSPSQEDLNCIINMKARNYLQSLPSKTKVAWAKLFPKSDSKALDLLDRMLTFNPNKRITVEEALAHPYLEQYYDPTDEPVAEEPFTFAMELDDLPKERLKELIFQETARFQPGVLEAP

Row | Binder | Kd [nM]
1 | B1 | 178
2 | B2 | 130

Molecular target: B1
Assay: SPR; Biacore T100; DUSP3-WT immobilised on CM5 sensorchip (3,000 RU); peptides 5-40 μM in HBS-N buffer; 25°C, 120 s association, 300 s dissociation, 10 μl/min; three independent experiments
Conditions: both partners purified

Row | Binder | Kd [nM]
3 | B3 | 2070
4 | B4 | 2010
5 | B5 | 2340
6 | B6 | 1620
